{
  "source": "patent US20240294604A1",
  "about": "(Stanford University, published 2024)",
  "binders": {"B1": {"name": "BCMA#71 (receptor)", "variant BCMA extracellular domain": "MLQMAGQCSQNEYFDGLLYACIPCQLRCSSNTPPLACQRYCNASVTNSVKGTDA", "notes": "also called Clone #71; sBCMA variant clone 71"}, "B2": {"name": "BCMA#95 (receptor)", "variant BCMA extracellular domain": "B1 variant BCMA extracellular domain with M1V, L2S, M4T, N11D, G16S, D53N", "notes": "also called Clone #95"}, "B3": {"name": "BCMA#73 (receptor)", "variant BCMA extracellular domain": "B1 variant BCMA extracellular domain with Y19H, D53N", "notes": "also called Clone #73; clone #22"}, "B4": {"name": "BCMA#74 (receptor)", "variant BCMA extracellular domain": "B1 variant BCMA extracellular domain with S9P, N11D, N47S", "notes": "also called Clone #74; sBCMA variant clone 74"}, "B5": {"name": "BCMA#72 (receptor)", "variant BCMA extracellular domain": "B1 variant BCMA extracellular domain with D53N", "notes": "also called Clone #72; sBCMA variant clone 72"}, "B6": {"name": "BCMA#106 (receptor)", "variant BCMA extracellular domain": "VSQTAGQCSQNEYFDGLLHACIPCQLRCSSDIPPLACQRYCNASVTNSVKGTNA", "notes": "also called Clone #106; clones #106-111"}, "B7": {"name": "BCMA#75 (receptor)", "variant BCMA extracellular domain": "MLPMAGQCPQNEYFDSLLYACIPCQLRCSSSTPPLACQHYCNASVTRSVEGTNA", "notes": "also called Clone #75; clones #49, 75-94"}},
  "note": "Substitutions are numbered along the chain they refer to.",
  "data": [
    {"target": "T1, A Proliferation Inducing Ligand (APRIL) (human, UniProt O75888 105-250)", "T1 sequence": "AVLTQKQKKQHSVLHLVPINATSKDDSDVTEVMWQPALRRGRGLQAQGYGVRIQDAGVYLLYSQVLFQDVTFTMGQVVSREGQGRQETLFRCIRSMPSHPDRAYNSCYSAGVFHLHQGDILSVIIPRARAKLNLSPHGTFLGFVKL", "experiment": "cell binding titration by flow cytometry; soluble APRIL varied to 10 nM on cells displaying the BCMA clone", "units": {"Bmax": "A.U.", "Kd": "nM"}, "values": [
      {"binder": "B1", "Bmax": 8270, "Kd": 0.008},
      {"binder": "B2", "Bmax": 7230, "Kd": 0.028},
      {"binder": "B3", "Bmax": 5530, "Kd": 0.054},
      {"binder": "B4", "Bmax": 9200, "Kd": 0.007},
      {"binder": "B5", "Bmax": 5860, "Kd": 0.018},
      {"binder": "B6", "Bmax": 7910, "Kd": 0.015},
      {"binder": "B7", "Bmax": 7060, "Kd": "~0.016"}
    ]},
    {"target": "BAFF", "sequence (soluble ligand, as listed by the source)": "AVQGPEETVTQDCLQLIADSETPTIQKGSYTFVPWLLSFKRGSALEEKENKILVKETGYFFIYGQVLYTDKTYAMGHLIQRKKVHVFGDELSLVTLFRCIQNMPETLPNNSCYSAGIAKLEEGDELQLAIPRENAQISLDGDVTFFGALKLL", "experiment": "cell binding titration by flow cytometry; soluble BAFF varied to 10 nM on cells displaying the BCMA clone; B.P is not defined in the filing", "values": [
      {"binder": "B1", "B.P": 136},
      {"binder": "B4", "B.P": 186},
      {"binder": "B5", "B.P": 121}
    ]},
    {"target": "T1, A Proliferation Inducing Ligand (APRIL)", "experiment": "cell binding titration by flow cytometry; soluble APRIL varied to 10 nM on cells displaying the BCMA clone; BP is not defined in the filing", "values": [
      {"binder": "B1", "BP": 1030},
      {"binder": "B2", "BP": 258},
      {"binder": "B3", "BP": 102},
      {"binder": "B4", "BP": 1310},
      {"binder": "B5", "BP": 325},
      {"binder": "B6", "BP": 527},
      {"binder": "B7", "BP": 441}
    ]},
    {"target": "BAFF", "experiment": "cell binding titration by flow cytometry; soluble BAFF varied to 10 nM on cells displaying the BCMA clone", "units": {"Bmax": "A.U.", "Kd": "nM"}, "values": [
      {"binder": "B1", "Bmax": 1230, "Kd": 0.009},
      {"binder": "B4", "Bmax": 1680, "Kd": 0.009},
      {"binder": "B5", "Bmax": 974, "Kd": 0.008},
      {"binder": "B6", "Bmax": 870, "Kd": 0.028}
    ]},
    {"target": "BAFF", "experiment": "cell binding titration by flow cytometry; soluble BAFF varied on cells displaying the BCMA clone", "values": [
      {"binder": "B3", "binding result": "no binding"}
    ]}
  ]
}
